Experimental data: article PMC9703590 (Protein Science : A Publication of the Protein Society, 2022)
Read-outs that look alike come from different tables or passages of the source.

B1: Ws0279 (natural protein)
chain: QKSTLNEIIKRGELRVGLEPGYLPFEMKDKKGNVIGFDVDLAREMAKAMGVKLKLVPTSWDGLIPGLVTEKFDIIISGMTISQERNLRVNFVEPYIVVGQSLLVKKGLEKGVKSYKDLDKPELTLVTKFGVSAEYAAKRLFKNAKLKTYDTEAEAVQEVLNGKADMFIFDLPFNVAFMAQKGQGYLVHLDTSLTYEPLGWAIKKGDPDFLNWLNHFLAQIKHDGSYDELYERWFVL
B2: PaCDTΔC (C-terminal-truncated PaCDT) (enzyme, Pseudomonas aeruginosa, UniProt Q01269 26-259, looked up)
chain: QESRLDRILESGVLRVATTGDYKPFSYRTEEGGYAGFDVDMAQRLAESLGAKLVVVPTSWPNLMRDFADDRFDIAMSGISINLERQRQAYFSIPYLRDGKTPITLCSEEARFQTLEQIDQPGVTAIVNPGGTNEKFARANLKKARILVHPDNVTIFQQIVDGKADLMMTDAIEARLQSRLHPELCAVHPQQPFDFAEKAYLLPRDEAFKRYVDQWLHIAEQSGLLRQRMEHWLE
B3: Cyclohexadienyl dehydratase from Pseudomonas aeruginosa (PaCDT) (enzyme, UniProt Q01269 26-268, looked up)
chain: QESRLDRILESGVLRVATTGDYKPFSYRTEEGGYAGFDVDMAQRLAESLGAKLVVVPTSWPNLMRDFADDRFDIAMSGISINLERQRQAYFSIPYLRDGKTPITLCSEEARFQTLEQIDQPGVTAIVNPGGTNEKFARANLKKARILVHPDNVTIFQQIVDGKADLMMTDAIEARLQSRLHPELCAVHPQQPFDFAEKAYLLPRDEAFKRYVDQWLHIAEQSGLLRQRMEHWLEYRWPTAHGK

Legend:
AncCDT‐5 (A5) = assay: discontinuous colorimetric assay of phenylpyruvate formation; assay type: biochemical, synthetic construct; conditions: 25°C, 50 mM Na2HPO4 substrate buffer, 100 nM enzyme
[1] = molecular target: the molecule itself
SEC-MALS = molecular target: the molecule itself; assay: SEC-MALS

Molecule	stoichiometry N (SEC-MALS)	further results
O=C(O)C(=O)CC1(C(=O)O)C=CC(O)C=C1 (stereo not shown) [prephenate]	–	Km (AncCDT‐5 (A5)): 81.2 ± 26.3 µM
B1	–	stoichiometry N [1]: 3
B2	3	–
B3	3	–
